These are literature values, as cited in patent US20180140739A1, “HAEMOSTATIC DEVICE” (HAEMOSTATIX LIMITED, priority 2015, published 2018).

For this data set, the target named is T1, fibrinogen hole 'a' and hole 'b' (Homo sapiens, UniProt P02675+P02679).
T1 sequence (P02679 27-433 limits assumed): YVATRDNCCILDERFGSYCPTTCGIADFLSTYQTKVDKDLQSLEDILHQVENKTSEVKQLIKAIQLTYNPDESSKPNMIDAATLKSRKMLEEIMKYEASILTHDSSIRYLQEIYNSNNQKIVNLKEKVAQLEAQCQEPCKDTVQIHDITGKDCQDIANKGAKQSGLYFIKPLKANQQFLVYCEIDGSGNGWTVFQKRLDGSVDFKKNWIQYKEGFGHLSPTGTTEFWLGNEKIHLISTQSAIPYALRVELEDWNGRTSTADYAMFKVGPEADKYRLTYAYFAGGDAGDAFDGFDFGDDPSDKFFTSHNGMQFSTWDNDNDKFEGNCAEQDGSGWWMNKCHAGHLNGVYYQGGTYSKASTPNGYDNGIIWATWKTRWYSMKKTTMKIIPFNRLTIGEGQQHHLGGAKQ
T1 sequence (P02675 31-491): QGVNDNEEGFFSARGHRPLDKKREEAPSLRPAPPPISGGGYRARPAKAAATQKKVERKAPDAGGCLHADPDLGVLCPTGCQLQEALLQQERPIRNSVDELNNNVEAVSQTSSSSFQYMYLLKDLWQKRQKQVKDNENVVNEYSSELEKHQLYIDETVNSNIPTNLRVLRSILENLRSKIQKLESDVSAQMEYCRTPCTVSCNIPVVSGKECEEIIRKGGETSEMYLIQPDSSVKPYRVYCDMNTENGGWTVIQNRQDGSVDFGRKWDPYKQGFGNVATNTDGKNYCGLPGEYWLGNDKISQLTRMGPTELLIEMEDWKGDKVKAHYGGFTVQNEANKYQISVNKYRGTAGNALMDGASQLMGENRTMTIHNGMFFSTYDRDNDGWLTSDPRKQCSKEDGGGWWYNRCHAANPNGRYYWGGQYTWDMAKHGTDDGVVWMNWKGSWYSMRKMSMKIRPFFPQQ
T1 sequence (P02671 20-629 partner limits assumed): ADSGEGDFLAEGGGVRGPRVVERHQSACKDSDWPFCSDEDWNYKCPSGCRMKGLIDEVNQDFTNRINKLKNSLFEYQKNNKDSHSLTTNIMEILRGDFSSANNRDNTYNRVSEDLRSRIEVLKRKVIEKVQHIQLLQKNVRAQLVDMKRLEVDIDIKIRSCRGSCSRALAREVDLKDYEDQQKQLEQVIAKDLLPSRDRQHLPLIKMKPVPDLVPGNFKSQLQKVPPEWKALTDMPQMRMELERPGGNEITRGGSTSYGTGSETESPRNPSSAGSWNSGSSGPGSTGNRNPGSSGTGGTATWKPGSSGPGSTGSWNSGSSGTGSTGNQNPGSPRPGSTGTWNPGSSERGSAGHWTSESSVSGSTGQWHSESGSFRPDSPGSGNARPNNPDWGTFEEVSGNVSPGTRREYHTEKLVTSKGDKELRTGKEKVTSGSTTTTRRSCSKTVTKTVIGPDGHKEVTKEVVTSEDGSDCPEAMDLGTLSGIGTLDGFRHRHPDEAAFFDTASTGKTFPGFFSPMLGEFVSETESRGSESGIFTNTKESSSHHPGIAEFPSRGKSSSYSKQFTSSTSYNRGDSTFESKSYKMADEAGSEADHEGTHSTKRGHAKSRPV
Particulars: cited from earlier work.

Take GPRPFPA (listed as Homo sapiens): the “binding preference for hole 'a' / hole 'b' of fibrinogen” value is listed as “binds with high preference for hole ‘a’ in fibrinogen”.
